# Measured values reported in article PMC4893161, “The Dynamic Localization of Cytoplasmic Dynein in Neurons Is Driven by Kinesin-1” (Neuron, 2016).
# Key:
# Format in all cases: binding
# KIF5A, KIF5B, KIF5C = assay: Co-immunoprecipitation of DIC1a with myc-tagged KIF5 isoforms in COS cells; settings: IP anti-myc, Figure 4A
# KIF5C stalk (561–774) = assay: Co-immunoprecipitation of DIC1a with KIF5C head, stalk and tail constructs in COS cells; settings: IP anti-GFP, Figures 4B and 4C
# KLC2 = assay: Co-immunoprecipitation of KLC2 versus KLC1 with mCherry-DIC1a in COS cells; settings: COS cell lysates, IP anti-mCherry, band intensity relative to KLC1, n = 4 experiments
molecule,measurement,setting,value
"DIC1a: neuron-specific dynein intermediate chain isoform, expressed in COS cells (protein, left off: mCherry, end not stated, kept, neuron-specific dynein intermediate chain isoform, expressed in COS cells) MSDKSDLKAELERKKQRLAQIREEKKRKEEERKKKEADMQQKKEPVPDDSDLDRKRRETEALLQSIGISPEPPLVQPLHFLTWDTCYFHYLVPTPMSPSSKSVSTPSEAGSQDDLGPLTRTLQWDTDPSVLQLQSDSELGRRLNKLGVSKVTQVDFLPREVVSYSKETQTPLATHQSEEDEEDEEMVEPKVGHDSELENQDKKQETKEAPPRELTEEEKQQILHSEEFLIFFDRTIRVIERALAEDSDIFFDYSGRELEEKDGDVQAGANLSFNRQFYDEHWSKHRVVTCMDWSLQYPELMVASYSNNEDAPHEPDGVALVWNMKFKKTTPEYVFHCQSSVMSVCFARFHPNLVVGGTYSGQIVLWDNRSHRRTPVQRTPLSAAAHTHPVYCVNVVGTQNAHNLITVSTDGKMCSWSLDMLSTPQESMELVYNKSKPVAVTGMAFPTGDVNNFVVGSEEGTVYTACRHGSKAGIGEVFEGHQGPVTGINCHMAVGPIDFSHLFVTSSFDWTVKLWTTKHNKPLYSFEDNADYVYDVMWSPVHPALFACVDGMGRLDLWNLNSDTEVPTASVAIEGAYALNRVRWAQGGKEVAVGDSEGRIWIYDVGELAVPHNDEWTRFARTLVEIRANRADSEEEGAVELAA",co-precipitation with all three KIF5 isoforms,"KIF5A, KIF5B, KIF5C",co-precipitated
same,co-precipitation with stalk region of KIF5C,KIF5C stalk (561–774),co-precipitated
same,KLC2 relative to KLC1 co-immunoprecipitated with DIC1a,KLC2,5 fold
